Assay results from US20220143024A1, “METHODS OF USING IMIPRIDONES” (Board of Regents, The University of Texas System, priority 2019, published 2022).

Legend:
[1] = target: IBA57 (human) (UniProt Q5T440); assay: BioID-MS +ONC201
[2] = target: NFS1 (human) (UniProt Q9Y697); assay: BioID-MS +ONC201
Sequence of NFS1 (human) (Q9Y697 56-457 limits assumed): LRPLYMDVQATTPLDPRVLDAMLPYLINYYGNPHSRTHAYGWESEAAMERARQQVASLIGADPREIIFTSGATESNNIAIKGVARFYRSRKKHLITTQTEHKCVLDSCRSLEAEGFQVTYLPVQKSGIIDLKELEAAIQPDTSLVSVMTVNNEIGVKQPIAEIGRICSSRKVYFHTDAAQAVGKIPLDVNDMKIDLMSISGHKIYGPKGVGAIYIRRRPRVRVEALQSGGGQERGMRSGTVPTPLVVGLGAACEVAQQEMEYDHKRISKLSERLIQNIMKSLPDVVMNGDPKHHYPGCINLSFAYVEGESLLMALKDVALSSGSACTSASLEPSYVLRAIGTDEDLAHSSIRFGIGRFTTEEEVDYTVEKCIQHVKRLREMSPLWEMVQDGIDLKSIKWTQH

Sequence of IBA57 (human) (Q5T440 40-356 limits assumed): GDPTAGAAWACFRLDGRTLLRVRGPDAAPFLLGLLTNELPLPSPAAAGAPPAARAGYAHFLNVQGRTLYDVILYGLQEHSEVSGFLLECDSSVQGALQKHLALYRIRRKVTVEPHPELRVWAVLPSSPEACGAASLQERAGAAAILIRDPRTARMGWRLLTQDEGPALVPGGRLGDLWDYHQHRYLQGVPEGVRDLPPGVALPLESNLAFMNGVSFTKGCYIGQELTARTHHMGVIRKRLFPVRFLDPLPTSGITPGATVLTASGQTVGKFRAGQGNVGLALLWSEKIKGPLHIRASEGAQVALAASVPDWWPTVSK

- Log2 Fold change (vs control) [1]: -1.05 log2
- Log2 Fold change (vs control) [2]: 0.55 log2
Substance: FlagBirA-ClpP (WT) (from UniProt P06709 1-321; Q16740 57-277) (enzyme)
